In patent US20240261333A1, “NOVEL TARGETS FOR ENHANCING ANTI-TUMOR IMMUNITY” (THE BROAD INSTITUTE, INC., priority 2021, published 2024):

Experiments:
[1] = biological target: ATP1A1 (human) (UniProt P05023); assay: co-IP/MS, anti-FLAG IP of C-FLAG B3GNT2 cell lysate
[2] = biological target: CALU (human) (UniProt O43852); assay: as above
[3] = biological target: CASP14 (human) (UniProt P31944); assay: as above
[4] = biological target: ERLIN1 (human) (UniProt O75477); assay: as above
[5] = biological target: FKBP10 (human) (UniProt Q96AY3); assay: as above
[6] = biological target: GCN1 (human) (UniProt Q92616); assay: as above
[7] = biological target: RCN2 (human) (UniProt Q14257); assay: as above
[8] = biological target: RPL12 (human) (UniProt P30050); assay: as above
[9] = biological target: RPL14 (human) (UniProt P50914); assay: as above
[10] = biological target: RPS15 (human) (UniProt P62841); assay: as above
[11] = biological target: SQSTM1 (human) (UniProt Q13501); assay: as above
[12] = biological target: DDX20 (UniProt Q9UHI6); assay: co-IP, anti-FLAG, C-FLAG B3GNT2 cell lysate, mass spectrometry
[13] = biological target: DNAJA2 (UniProt O60884); assay: as above
[14] = biological target: EIF4G1 (UniProt Q04637); assay: as above
[15] = biological target: HIST1H1E (UniProt P10412); assay: as above
[16] = biological target: HNRNPU (UniProt Q00839); assay: as above
[17] = biological target: HSPB1 (UniProt P04792); assay: as above
[18] = biological target: ITGB3 (UniProt P05106); assay: as above
[19] = biological target: LIMA1 (UniProt Q9UHB6); assay: as above
[20] = biological target: MTCH2 (UniProt Q9Y6C9); assay: as above
[21] = biological target: MTDH (UniProt Q86UE4); assay: as above
[22] = biological target: NCCRP1 (UniProt Q6ZVX7); assay: as above
[23] = biological target: PBXIP1 (UniProt Q96AQ6); assay: as above
[24] = biological target: PSMA7 (UniProt O14818); assay: as above
[25] = biological target: RPL19 (UniProt P84098); assay: as above
[26] = biological target: RPL22 (UniProt P35268); assay: as above
[27] = biological target: RPL27A (UniProt P46776); assay: as above
[28] = biological target: RPL3 (UniProt P39023); assay: as above
[29] = biological target: RPL35 (UniProt P42766); assay: as above
[30] = biological target: RPL37A (UniProt P61513); assay: as above
[31] = biological target: RPL5 (UniProt P46777); assay: as above
[32] = biological target: RPS16 (UniProt P62249); assay: as above
[33] = biological target: RPS19 (UniProt P39019); assay: as above
[34] = biological target: RPS8 (UniProt P62241); assay: as above
[35] = biological target: SRSF1 (UniProt Q07955); assay: as above
[36] = biological target: SRSF3 (UniProt P84103); assay: as above
[37] = biological target: SSRP1 (UniProt Q08945); assay: as above
[38] = biological target: TAGLN (UniProt Q01995); assay: as above
[39] = biological target: TNKS1BP1 (UniProt Q9C0C2); assay: as above
[40] = biological target: TXN (UniProt P10599); assay: as above
Chain of TXN (P10599 2-105 limits assumed): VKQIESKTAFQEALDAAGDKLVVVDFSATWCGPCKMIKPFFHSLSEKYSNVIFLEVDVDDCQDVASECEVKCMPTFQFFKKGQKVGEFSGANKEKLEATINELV

Chain of DDX20 (Q9UHI6 whole entry): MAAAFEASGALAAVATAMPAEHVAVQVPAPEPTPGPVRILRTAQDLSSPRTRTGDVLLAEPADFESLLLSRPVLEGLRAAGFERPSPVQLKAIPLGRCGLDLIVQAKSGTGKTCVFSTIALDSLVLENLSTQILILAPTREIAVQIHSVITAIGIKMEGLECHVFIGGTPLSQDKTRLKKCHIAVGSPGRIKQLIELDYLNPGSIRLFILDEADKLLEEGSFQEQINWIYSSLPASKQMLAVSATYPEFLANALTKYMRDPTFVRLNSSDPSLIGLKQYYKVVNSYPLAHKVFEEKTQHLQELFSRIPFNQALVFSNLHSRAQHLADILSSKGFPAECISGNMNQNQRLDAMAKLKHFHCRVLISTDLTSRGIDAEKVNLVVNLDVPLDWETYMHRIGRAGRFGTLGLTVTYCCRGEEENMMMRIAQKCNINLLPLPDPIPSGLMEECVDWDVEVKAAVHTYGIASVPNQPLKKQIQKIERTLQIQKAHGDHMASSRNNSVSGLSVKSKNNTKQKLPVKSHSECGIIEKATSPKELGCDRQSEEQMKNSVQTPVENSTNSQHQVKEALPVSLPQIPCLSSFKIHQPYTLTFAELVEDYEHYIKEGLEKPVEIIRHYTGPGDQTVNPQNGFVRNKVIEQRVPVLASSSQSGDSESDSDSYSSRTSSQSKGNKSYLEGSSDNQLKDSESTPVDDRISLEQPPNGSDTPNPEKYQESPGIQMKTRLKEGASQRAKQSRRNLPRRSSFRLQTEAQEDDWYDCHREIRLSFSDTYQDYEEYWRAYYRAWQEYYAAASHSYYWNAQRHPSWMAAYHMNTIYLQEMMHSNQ
Chain of PBXIP1 (Q96AQ6 30-731 limits assumed): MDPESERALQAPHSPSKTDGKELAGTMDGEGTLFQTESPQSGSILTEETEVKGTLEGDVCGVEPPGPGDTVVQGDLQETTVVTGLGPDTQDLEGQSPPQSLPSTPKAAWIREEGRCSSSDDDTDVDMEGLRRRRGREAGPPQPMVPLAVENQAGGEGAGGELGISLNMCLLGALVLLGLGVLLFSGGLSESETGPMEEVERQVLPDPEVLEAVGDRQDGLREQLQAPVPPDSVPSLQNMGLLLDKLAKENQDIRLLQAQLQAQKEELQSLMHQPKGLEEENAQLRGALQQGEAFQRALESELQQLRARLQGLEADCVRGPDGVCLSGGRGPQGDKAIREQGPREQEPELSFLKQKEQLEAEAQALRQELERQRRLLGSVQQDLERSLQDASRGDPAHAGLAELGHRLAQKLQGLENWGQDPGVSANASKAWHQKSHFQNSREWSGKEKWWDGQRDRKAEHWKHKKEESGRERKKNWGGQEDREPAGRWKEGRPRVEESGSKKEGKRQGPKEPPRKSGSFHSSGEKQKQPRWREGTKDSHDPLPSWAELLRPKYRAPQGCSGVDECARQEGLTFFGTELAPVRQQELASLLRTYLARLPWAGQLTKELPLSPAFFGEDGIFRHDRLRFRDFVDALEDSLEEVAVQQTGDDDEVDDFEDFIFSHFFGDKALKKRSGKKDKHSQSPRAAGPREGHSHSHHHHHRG
Chain of NCCRP1 (Q6ZVX7 whole entry): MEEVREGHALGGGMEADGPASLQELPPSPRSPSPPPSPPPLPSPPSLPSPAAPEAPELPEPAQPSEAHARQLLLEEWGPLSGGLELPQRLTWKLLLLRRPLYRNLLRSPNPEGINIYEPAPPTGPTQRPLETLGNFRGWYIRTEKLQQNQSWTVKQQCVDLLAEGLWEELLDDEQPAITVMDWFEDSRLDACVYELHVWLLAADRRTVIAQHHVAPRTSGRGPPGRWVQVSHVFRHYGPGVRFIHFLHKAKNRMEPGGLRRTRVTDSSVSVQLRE
Chain of RCN2 (human) (Q14257 other isoform, or with tags, fused parts or gaps limits assumed): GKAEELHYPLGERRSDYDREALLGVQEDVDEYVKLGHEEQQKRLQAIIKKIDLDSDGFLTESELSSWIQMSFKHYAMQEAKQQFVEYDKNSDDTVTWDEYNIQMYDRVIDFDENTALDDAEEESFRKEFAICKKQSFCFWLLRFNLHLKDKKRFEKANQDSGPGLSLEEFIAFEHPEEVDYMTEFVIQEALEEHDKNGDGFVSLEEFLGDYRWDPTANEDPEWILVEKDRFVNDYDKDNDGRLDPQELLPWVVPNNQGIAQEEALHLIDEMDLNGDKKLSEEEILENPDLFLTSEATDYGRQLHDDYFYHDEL
Chain of ITGB3 (P05106 27-788 limits assumed): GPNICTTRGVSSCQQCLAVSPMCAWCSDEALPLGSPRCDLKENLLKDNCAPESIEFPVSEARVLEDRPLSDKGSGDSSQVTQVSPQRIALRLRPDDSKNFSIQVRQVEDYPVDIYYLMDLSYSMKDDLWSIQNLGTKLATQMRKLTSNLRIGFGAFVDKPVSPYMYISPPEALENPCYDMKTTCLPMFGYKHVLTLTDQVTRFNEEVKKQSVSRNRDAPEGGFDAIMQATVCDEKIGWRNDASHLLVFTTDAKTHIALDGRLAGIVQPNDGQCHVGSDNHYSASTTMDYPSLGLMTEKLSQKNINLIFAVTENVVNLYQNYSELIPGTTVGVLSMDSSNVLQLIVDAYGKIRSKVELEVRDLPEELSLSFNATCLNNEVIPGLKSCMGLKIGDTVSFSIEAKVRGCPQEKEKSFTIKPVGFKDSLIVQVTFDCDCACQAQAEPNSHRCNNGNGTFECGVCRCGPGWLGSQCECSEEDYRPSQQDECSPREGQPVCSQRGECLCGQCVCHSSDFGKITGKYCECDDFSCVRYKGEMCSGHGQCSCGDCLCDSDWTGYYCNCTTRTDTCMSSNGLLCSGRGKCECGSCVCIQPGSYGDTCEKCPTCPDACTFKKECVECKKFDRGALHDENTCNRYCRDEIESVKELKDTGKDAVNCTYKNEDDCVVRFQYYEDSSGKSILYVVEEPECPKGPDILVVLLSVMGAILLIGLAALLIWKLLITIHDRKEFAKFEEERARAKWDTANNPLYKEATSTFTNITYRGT
Chain of CASP14 (human) (P31944 whole entry): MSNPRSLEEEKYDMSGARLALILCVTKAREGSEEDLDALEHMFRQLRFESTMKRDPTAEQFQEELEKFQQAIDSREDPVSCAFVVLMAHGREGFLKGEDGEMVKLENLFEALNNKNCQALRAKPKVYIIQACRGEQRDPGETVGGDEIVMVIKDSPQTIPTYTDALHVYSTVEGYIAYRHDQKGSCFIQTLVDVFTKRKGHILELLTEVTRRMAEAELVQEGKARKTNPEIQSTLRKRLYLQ
Chain of FKBP10 (human) (Q96AY3 27-582 limits assumed): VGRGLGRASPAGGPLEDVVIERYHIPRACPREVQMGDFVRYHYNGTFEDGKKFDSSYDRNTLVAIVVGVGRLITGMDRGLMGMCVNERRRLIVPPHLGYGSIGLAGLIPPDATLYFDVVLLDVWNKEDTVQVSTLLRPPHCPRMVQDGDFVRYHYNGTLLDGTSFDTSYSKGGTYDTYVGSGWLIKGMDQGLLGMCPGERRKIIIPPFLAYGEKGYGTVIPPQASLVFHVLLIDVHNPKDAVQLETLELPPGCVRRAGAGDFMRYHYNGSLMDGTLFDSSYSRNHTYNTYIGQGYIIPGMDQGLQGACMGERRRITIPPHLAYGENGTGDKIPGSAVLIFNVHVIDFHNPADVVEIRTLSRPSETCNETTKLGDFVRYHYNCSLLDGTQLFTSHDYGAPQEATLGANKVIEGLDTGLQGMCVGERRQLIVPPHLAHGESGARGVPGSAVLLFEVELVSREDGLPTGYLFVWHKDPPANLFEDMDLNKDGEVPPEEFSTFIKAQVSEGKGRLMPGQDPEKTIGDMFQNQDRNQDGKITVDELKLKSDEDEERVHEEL
Chain of DNAJA2 (O60884 1-409 limits assumed): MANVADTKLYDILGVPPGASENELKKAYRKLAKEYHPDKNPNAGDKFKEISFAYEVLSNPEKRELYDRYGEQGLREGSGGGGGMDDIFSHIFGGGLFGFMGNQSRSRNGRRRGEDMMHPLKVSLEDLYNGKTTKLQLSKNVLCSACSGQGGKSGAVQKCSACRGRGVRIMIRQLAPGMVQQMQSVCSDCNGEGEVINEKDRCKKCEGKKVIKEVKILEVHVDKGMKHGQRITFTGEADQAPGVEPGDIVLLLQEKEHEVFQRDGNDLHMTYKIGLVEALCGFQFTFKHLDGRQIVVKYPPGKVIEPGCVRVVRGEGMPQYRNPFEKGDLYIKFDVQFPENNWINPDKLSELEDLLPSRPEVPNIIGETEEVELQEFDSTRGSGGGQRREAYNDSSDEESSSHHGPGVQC
Chain of TAGLN (Q01995 2-201 limits assumed): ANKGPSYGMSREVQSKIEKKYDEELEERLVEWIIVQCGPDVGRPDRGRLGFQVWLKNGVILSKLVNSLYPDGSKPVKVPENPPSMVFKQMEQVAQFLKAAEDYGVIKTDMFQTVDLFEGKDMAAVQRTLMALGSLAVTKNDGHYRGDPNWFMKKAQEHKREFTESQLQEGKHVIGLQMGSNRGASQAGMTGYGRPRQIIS
Chain of SRSF1 (Q07955 2-248 limits assumed): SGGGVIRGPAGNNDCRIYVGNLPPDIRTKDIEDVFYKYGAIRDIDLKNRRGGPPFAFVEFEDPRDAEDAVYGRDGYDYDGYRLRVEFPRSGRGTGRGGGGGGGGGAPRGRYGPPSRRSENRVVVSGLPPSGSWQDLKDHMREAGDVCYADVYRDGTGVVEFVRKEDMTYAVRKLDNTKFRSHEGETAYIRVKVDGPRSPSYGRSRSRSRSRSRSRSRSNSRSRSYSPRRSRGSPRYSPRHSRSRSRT
Chain of CALU (human) (O43852 20-315 limits assumed): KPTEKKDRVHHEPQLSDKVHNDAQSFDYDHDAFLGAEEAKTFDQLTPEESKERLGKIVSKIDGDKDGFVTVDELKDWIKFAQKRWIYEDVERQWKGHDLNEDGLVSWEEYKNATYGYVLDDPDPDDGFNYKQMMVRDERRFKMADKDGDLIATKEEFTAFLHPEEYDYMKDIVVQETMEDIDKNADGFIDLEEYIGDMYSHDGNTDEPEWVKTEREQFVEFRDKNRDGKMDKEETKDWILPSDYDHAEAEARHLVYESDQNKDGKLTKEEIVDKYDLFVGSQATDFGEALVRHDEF

C-terminal FLAG tagged B3GNT2 (from UniProt Q9NY97 1-397) (enzyme)
co-IP mass spectrometry count [1]: 12 | co-IP mass spectrometry count [2]: 13 | co-IP mass spectrometry count [3]: 9 | co-IP mass spectrometry count [4]: 9 | co-IP mass spectrometry count [5]: 16 | co-IP mass spectrometry count [6]: 4 | co-IP mass spectrometry count [7]: 16 | co-IP mass spectrometry count [8]: 11 | co-IP mass spectrometry count [9]: 21 | co-IP mass spectrometry count [10]: 11 | co-IP mass spectrometry count [11]: 43 | co-IP mass spectrometry count [12]: 6 | co-IP mass spectrometry count [13]: 3 | co-IP mass spectrometry count [14]: 6 | co-IP mass spectrometry count [15]: 6 | co-IP mass spectrometry count [16]: 12 | co-IP mass spectrometry count [17]: 4 | co-IP mass spectrometry count [18]: 3 | co-IP mass spectrometry count [19]: 2 | co-IP mass spectrometry count [20]: 2 | co-IP mass spectrometry count [21]: 6 | co-IP mass spectrometry count [22]: 4 | co-IP mass spectrometry count [23]: 4 | co-IP mass spectrometry count [24]: 2 | co-IP mass spectrometry count [25]: 11 | co-IP mass spectrometry count [26]: 5 | co-IP mass spectrometry count [27]: 10 | co-IP mass spectrometry count [28]: 25 | co-IP mass spectrometry count [29]: 5 | co-IP mass spectrometry count [30]: 7 | co-IP mass spectrometry count [31]: 6 | co-IP mass spectrometry count [32]: 20 | co-IP mass spectrometry count [33]: 10 | co-IP mass spectrometry count [34]: 17 | co-IP mass spectrometry count [35]: 9 | co-IP mass spectrometry count [36]: 7 | co-IP mass spectrometry count [37]: 6 | co-IP mass spectrometry count [38]: 3 | co-IP mass spectrometry count [39]: 8 | co-IP mass spectrometry count [40]: 3
